The target of the assay is SARS-CoV-2 spike receptor-binding domain (RBD), recombinant, produced in house (SARS-CoV-2) (UniProt P0DTC2). The experiment in a line: SEC. (Size exclusion chromatography separates by hydrodynamic size, large species first.)

Turning to “SARS-CoV-2 spike receptor-binding domain (RBD), recombinant, produced in house (from UniProt P0DTC2) (domain or fragment)”, the stoichiometry N was 3.

What is called stoichiometry N is a count of units in the complex or per binding partner.
